Assay results: patent US20030199423A1

What was measured:
[1] = molecular target: CD18-independent counterreceptor for ICAM-R on Jurkat cells; experiment: inhibition of Jurkat cell adhesion to coated soluble ICAM-R, peptide 1-2 mg/ml
[2] = molecular target: T1, soluble human ICAM-R (human), P32942; experiment: blocking of biotinylated murine ICR-8.1 binding to ICAM-R; competitor murine ICR-8.1
T1 chain: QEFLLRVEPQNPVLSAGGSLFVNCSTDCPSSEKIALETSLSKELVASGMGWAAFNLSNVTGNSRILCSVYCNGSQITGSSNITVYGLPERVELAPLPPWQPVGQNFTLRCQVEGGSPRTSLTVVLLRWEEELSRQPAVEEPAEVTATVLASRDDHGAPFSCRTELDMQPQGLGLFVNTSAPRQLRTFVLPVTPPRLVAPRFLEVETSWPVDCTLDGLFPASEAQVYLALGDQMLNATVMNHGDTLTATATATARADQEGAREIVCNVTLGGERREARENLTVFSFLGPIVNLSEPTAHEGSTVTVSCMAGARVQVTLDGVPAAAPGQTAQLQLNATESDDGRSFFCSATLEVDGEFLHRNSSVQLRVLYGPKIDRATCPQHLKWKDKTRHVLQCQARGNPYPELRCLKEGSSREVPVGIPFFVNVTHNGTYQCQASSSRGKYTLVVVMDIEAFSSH

[3] = molecular target: T1, soluble human ICAM-R (human), P32942; experiment: ELISA on coated baculovirus soluble ICAM-R

Binder | % Inhibition [1] [%] | fold less well competing than murine ICR-8.1 [2] [fold] | fold improvement in binding over the other recombinant ICR-8.1 antibodies [3] [fold]
GERREA [ICAM-R peptide, residues 271-276] | 11 | – | –
DGQST [ICAM-1 peptide (DGQST), residues 70-74] | 9 | – | –
recombinant ICR-8.1 antibody miHuVHI/MuVK (antibody, modifications not checked) chain 1: QIQLVQSGAEVKKPGASVKVSCKASGYTFTDCIILWVRQAPGQGLEWMGKINPYFGTTTYAQKFQGRVTITADTSTSTAYMELSSLRSEDTAVYYCARKEAYPDAMDYWGQGTLVTVSS chain 2: DAVMTQTPLSLPVSLGDQASISCRSSQSLVHSNGDTYLHWYLQKPGQSPQLLIYKVSNRFSGVPDRFSGSGSGTDFTLKLSRVEAEDLGVYFCSQSTHVPYTFGGGTKLEIK | – | 2 | 2
NGSQI [ICAM-R domain 1 peptide (NGSQI), residues 72-76] | 17 | – | –
EKIALET [ICAM-R peptide, residues 32-38] | 10 | – | –
GDQRL [ICAM-1 peptide (GDQRL), residues 228-232] | 22 | – | –
GDQML [ICAM-R domain 3 peptide (GDQML), residues 230-234] | 36 | – | –
